The text below walks through data of patent US20220177587A1, “METHODS AND USES OF VARIANT CD80 FUSION PROTEINS AND RELATED CONSTRUCTS” (Alpine Immune Sciences, Inc., priority 2018, published 2022).

B1: E35D/D46E/M47I (protein)
chain: VIHVTKEVKEVATLSCGHNVSVEELAQTRIYWQKDKKMVLTMMSGEINIWPEYKNRTIFDITNNLSIVILALRPSDEGTYECVVLKYEKDAFKREHLAEVTLSVKAD
B2: E35D/D46E/L85M (protein)
chain: B1 chain with I47M, L85M
B3: Q27H/E35D/M47I (protein)
chain: B1 chain with Q27H, E46D
B4: E35D/D46E/A91G (protein)
chain: B1 chain with I47M, A91G
B5: H18Y/E35D (protein)
chain: B1 chain with H18Y, E46D, I47M
B6: E35D/D46E (protein)
chain: B1 chain with I47M

Residue numbers refer to the chain shown, from its start. In names and notes the source's numbering stands.

huPD-L1, sequence (Q9NZQ7 19-290): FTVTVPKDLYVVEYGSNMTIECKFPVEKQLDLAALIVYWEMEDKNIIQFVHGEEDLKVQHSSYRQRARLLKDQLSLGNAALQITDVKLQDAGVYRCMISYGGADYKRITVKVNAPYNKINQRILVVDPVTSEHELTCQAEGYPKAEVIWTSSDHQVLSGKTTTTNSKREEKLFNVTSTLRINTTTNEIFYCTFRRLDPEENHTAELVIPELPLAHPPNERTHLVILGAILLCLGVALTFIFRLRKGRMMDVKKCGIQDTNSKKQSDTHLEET
huCTLA4, sequence (P16410 36-223): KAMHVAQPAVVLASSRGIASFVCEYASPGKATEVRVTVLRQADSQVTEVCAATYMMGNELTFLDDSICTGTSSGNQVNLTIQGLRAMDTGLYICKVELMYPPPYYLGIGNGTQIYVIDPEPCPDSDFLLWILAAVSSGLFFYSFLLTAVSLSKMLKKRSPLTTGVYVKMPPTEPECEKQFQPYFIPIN

One test concerns the target huPD-L1 (Homo sapiens, UniProt Q9NZQ7). The test can be described thus: Flow binding to CHO cells stably expressing PD-L1. The arrangement: huCTLA4 and huPD-L1, full-length mammalian surface expression constructs were generated; expressed in transfected cells; host or cells: CHO cells, lentiviral transduction, sorted to >98% purity. Conditions: Table E10; 33.3 nM; CHO cells stably expressing PD-L1. A digest of the protocol: (§1)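 Binding EC50 and PE mean fluorescence intensity derived by flow cytometry using PE-labelled anti-human Fc secondary. Target cells were CTLA4- or PD-L1-transfected CHO lines and CD28-expressing Jurkat/IL2 reporter cells, stained with fusion proteins on ice for 45 min following BSA blocking.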
As for B1, the “PD-L1 MFI at 33.3 nM” value worked out at 3789.

As to B2, the “PD-L1 MFI at 33.3 nM” value is 2880.

For B3, the “PD-L1 MFI at 33.3 nM” value amounted to 3424.

On to B4, for which the “PD-L1 MFI at 33.3 nM” value is 2818.

In the case of B5, the “PD-L1 MFI at 33.3 nM” value amounted to 3526.

Turning to B6, the “PD-L1 MFI at 33.3 nM” value was determined as 3757.

Still in this test, the particulars now being: Table E10; 33.3 nM; relative to CD80 WT IgV-Fc.
As to B1, the “PD-L1 Fold change to WT CD80” value stood at 53.9.

Turning to B2, the “PD-L1 Fold change to WT CD80” value came out at 41.0.

On to B3, for which the “PD-L1 Fold change to WT CD80” value is given as 48.7.

With B4, the “PD-L1 Fold change to WT CD80” value is 40.1.

Regarding B5, the “PD-L1 Fold change to WT CD80” value worked out at 50.2.

For B6, the “PD-L1 Fold change to WT CD80” value was found to be 53.4.

The same test, now with this note: Table E10; binding to PD-L1 compared to binding to CD28.
For B1, the “Ratio of PDL1:CD28” value is on record as 4.

Regarding B2, the “Ratio of PDL1:CD28” value is 18.

As to B3, the “Ratio of PDL1:CD28” value came out at 5.

Turning to B4, the “Ratio of PDL1:CD28” value was 1.

Take B5: the “Ratio of PDL1:CD28” value was 7.

As for B6, the “Ratio of PDL1:CD28” value worked out at 5.

The target of another test is huCTLA4 (Homo sapiens, UniProt P16410). The test is described as follows: Flow binding to CHO cells stably expressing CTLA4. The arrangement: huCTLA4 and huPD-L1, full-length mammalian surface expression constructs were generated; expressed in transfected cells; host or cells: CHO cells, lentiviral transduction, sorted to >98% purity. Conditions: Table E10; 33.3 nM; CHO cells stably expressing CTLA4. In outline:
as §1
In the case of B1, the “CTLA4 MFI at 33.3 nM” value worked out at 21394.

As to B2, the “CTLA4 MFI at 33.3 nM” value was 30289.

In the case of B3, the “CTLA4 MFI at 33.3 nM” value is 27530.

Consider B4, for which the “CTLA4 MFI at 33.3 nM” value turned out to be 32189.

As for B5, the “CTLA4 MFI at 33.3 nM” value turned out to be 26258.

Consider B6, for which the “CTLA4 MFI at 33.3 nM” value stood at 27921.

Staying with this test, now noted: Table E10; 33.3 nM; relative to CD80 WT IgV-Fc.
As for B1, the “CTLA4 Fold change to WT CD80” value is 11.2.

Take B2: the “CTLA4 Fold change to WT CD80” value amounted to 15.8.

Regarding B3, the “CTLA4 Fold change to WT CD80” value is reported as 14.4.

B4: the “CTLA4 Fold change to WT CD80” value is given as 16.8.

With B5, the “CTLA4 Fold change to WT CD80” value is on record as 13.7.

For the molecule B6, the “CTLA4 Fold change to WT CD80” value is 14.6.

In another test the target is T1, CD28 (Homo sapiens, UniProt P10747). The test is described as follows: Flow binding to Jurkat/IL2 reporter cells (CD28). Further details: host or cells: Jurkat cells expressing an IL-2-luciferase reporter. Conditions: Table E10; 33.3 nM; Jurkats (CD28). In outline:
as §1
On to B1, for which the “CD28 MFI at 33.3 nM” value is 1001.

B2: the “CD28 MFI at 33.3 nM” value is on record as 164.

Regarding B3, the “CD28 MFI at 33.3 nM” value is on record as 756.

Regarding B4, the “CD28 MFI at 33.3 nM” value is 3450.

B5: the “CD28 MFI at 33.3 nM” value was found to be 479.

Regarding B6, the “CD28 MFI at 33.3 nM” value came to 779.

Staying with this test, now noted: Table E10; 33.3 nM; relative to CD80 WT IgV-Fc.
With B1, the “CD28 Fold change to WT CD80” value is listed as 15.2.

Consider B2, for which the “CD28 Fold change to WT CD80” value is listed as 2.5.

As to B3, the “CD28 Fold change to WT CD80” value turned out to be 11.5.

Regarding B4, the “CD28 Fold change to WT CD80” value amounted to 52.3.

Take B5: the “CD28 Fold change to WT CD80” value came to 7.3.

For B6, the “CD28 Fold change to WT CD80” value was 11.8.

The next test concerns the target T1, CD28. The test is described as follows: Jurkat/IL2 + CHO/OKT3 +/- PD-L1 reporter assay: PD-L1-dependent CD28 costimulation. The class given is cell-based. The arrangement: host or cells: Jurkat cells expressing an IL-2-luciferase reporter. Particulars: Table E12; Jurkat/IL2 + CHO/OKT3/PD-L1; 5.0 nM. A digest of the protocol:
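Readout is relative luminescence from lysed cocultures: test protein given 15 min at room temperature to Jurkat cells before adding CHO artificial APCs displaying OKT3 alone or OKT3 plus PD-L1, then 5 h at 37 °C, 5% CO2.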
(In general: In a reporter assay the amount or activity of a reporter protein is the signal.)
Consider B1, for which the “Fold Increase over WT CD80-IgV-Fe” value is 4.8 and the “Relative Luciferase Units (RLU), CD80 Cone 5.0 nM” value (“Relative Luciferase Units (RLU)” below) came out at 1915 RLU.

Consider B2, for which the “Fold Increase over WT CD80-IgV-Fe” value is on record as 3.5 and the “Relative Luciferase Units (RLU)” value is given as 1413 RLU.

Regarding B3, the “Fold Increase over WT CD80-IgV-Fe” value was 4.6 and the “Relative Luciferase Units (RLU)” value was 1829 RLU.

B4: the “Fold Increase over WT CD80-IgV-Fe” value came out at 1.0 and the “Relative Luciferase Units (RLU)” value is given as 395 RLU.

For B5, the “Fold Increase over WT CD80-IgV-Fe” value is 5.0 and the “Relative Luciferase Units (RLU)” value was determined as 1990 RLU.

B6: the “Fold Increase over WT CD80-IgV-Fe” value is 4.9 and the “Relative Luciferase Units (RLU)” value was found to be 1961 RLU.
